In article PMC11026580 (2024):

Biological target: FcαRI (CD89) (Homo sapiens, UniProt P24071)
Assay: SPR

FcαRI (CD89), sequence (P24071 22-287): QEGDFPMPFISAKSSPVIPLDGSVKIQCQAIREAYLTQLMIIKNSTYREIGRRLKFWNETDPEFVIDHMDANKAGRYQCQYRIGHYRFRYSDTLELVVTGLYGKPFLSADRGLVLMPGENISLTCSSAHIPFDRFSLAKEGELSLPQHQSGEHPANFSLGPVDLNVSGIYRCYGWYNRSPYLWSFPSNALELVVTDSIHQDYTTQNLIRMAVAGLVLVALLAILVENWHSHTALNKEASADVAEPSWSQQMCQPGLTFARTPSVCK

Kd: ~300 nM
B1: IgA2 (glycoforms) (protein)
chain: ASPTSPKVFPLSLDSTPQDGNVVVACLVQGFFPQEPLSVTWSESGQNVTARNFPPSQDASGDLYTTSSQLTLPATQCPDGKSVTCHVKHYTNSSQDVTVPCRVPPPPPCCHPRLSLHRPALEDLLLGSEANLTCTLTGLRDASGATFTWTPSSGKSAVQGPPERDLCGCYSVSSVLPGCAQPWNHGETFTCTAAHPELKTPLTANITKSGNTFRPEVHLLPPPSEELALNELVTLTCLARGFSPKDVLVRWLQGSQELPREKYLTWASRQEPSQGTTTYAVTSILRVAAEDWKKGETFSCMVGHEALPLAFTQKTIDRMAGSCCVADWQMPPPYVVLDLPQETLEEETPGANLWPTTITFLTLFLLSLFYSTALTVTSVRGPSGKREGPQY
